Measurements taken from patent US20230056486.
Where “and” joins values, the source holds several entries; their conditions need not be identical. Identical values can stand only once.

Columns and labels:
[1] = test system: T1, (GR)10 dipeptide repeat peptide
T1 sequence: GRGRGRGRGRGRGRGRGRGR

[2] = test system: T2, Biotin-(PEG)4-(GR)10
T2 sequence: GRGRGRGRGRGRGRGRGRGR

Immobilized TPCK-trypsin on agarose resin; ThermoFisher Cat #20230, sequence (P00760 24-246): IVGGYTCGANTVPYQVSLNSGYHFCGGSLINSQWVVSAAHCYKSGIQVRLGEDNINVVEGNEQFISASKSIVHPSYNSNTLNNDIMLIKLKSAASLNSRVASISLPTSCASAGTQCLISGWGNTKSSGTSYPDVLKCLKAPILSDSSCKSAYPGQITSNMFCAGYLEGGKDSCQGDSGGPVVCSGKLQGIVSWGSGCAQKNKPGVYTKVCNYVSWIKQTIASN

With Factor Xa as the substance, how does the (GR)10 concentration left at 0 min (LC/MS; 50 µM start; TRIS buffer; TFA added before enzyme) [1] read?
Its (GR)10 concentration left at 0 min (LC/MS; 50 µM start; TRIS buffer; TFA added before enzyme) is 33.1 µM and 31 µM.

And the (GR)10 concentration left at 5 min (LC/MS; 50 µM start; TRIS buffer) [1]?
The (GR)10 concentration left at 5 min (LC/MS; 50 µM start; TRIS buffer) was 35 µM and 23.5 µM.

What about the (GR)10 concentration left at 10 min (LC/MS; 50 µM start; TRIS buffer) [1] of the same substance?
The (GR)10 concentration left at 10 min (LC/MS; 50 µM start; TRIS buffer) was 19.4 µM and 13.6 µM.

How did the “digestion of biotin-(PEG)4-(GR)10 after 5 minutes, immobilized enzyme (LC/MS)” value (“digestion … immobilized enzyme (LC/MS)” for short) [2] turn out when “Immobilized TPCK-trypsin on agarose resin; ThermoFisher Cat #20230” was run?
Its value is “over 90% digestion of biotin-(PEG)4-(GR)10 after only 5 minutes of incubation time”.

What about the (GR)10 concentration left at 0 min (LC/MS; 50 µM start) [1] of the same substance?
Its (GR)10 concentration left at 0 min (LC/MS; 50 µM start) is 68.4 µM and 32.7 µM.

What about the (GR)10 concentration left at 10 min (LC/MS; 50 µM start) [1] of the same substance?
Its (GR)10 concentration left at 10 min (LC/MS; 50 µM start) is 2.1 µM and 1.6 µM.

What about the (GR)10 concentration left at 30 min (LC/MS; 50 µM start) [1] of the same substance?
The (GR)10 concentration left at 30 min (LC/MS; 50 µM start) was 0.6 µM and 0.9 µM.

What about the (GR)10 concentration left at 120 min (LC/MS; 50 µM start) [1] of the same substance?
The (GR)10 concentration left at 120 min (LC/MS; 50 µM start) was 0.1 µM.

What about the (GR)10 left in CSF; Commercial Trypsin-Immobilized-5 min reaction (LC/MS; 200 µM (GR)10 in human CSF) (normalized µM) [1] of the same substance?
Its (GR)10 left in CSF; Commercial Trypsin-Immobilized-5 min reaction (LC/MS; 200 µM (GR)10 in human CSF) (normalized µM) is -0.

What about the (GR)10 left in CSF; Commercial Trypsin-Immobilized-605 min reaction [as printed; 60 min meant] (LC/MS; 200 µM (GR)10 in human CSF) (normalized µM) [1] of the same substance?
Its (GR)10 left in CSF; Commercial Trypsin-Immobilized-605 min reaction [as printed; 60 min meant] (LC/MS; 200 µM (GR)10 in human CSF) (normalized µM) is -0.

What about the (GR)10 left; Commercial Trypsin-Immobilized-5 min reaction (LC/MS) [1] of the same substance?
The (GR)10 left; Commercial Trypsin-Immobilized-5 min reaction (LC/MS) was 0 µM.

What about the (GR)10 left; Commercial Trypsin-immobilized-60 min reaction (LC/MS) [1] of the same substance?
Its (GR)10 left; Commercial Trypsin-immobilized-60 min reaction (LC/MS) is 0 µM.

And the (GR)10 left; Commercial Trypsin-resin wash from 5 min reaction (LC/MS) [1]?
The (GR)10 left; Commercial Trypsin-resin wash from 5 min reaction (LC/MS) was 0 µM.

And the (GR)10 left; Commercial Trypsin-resin wash from 60 min reaction (LC/MS) [1]?
The (GR)10 left; Commercial Trypsin-resin wash from 60 min reaction (LC/MS) was 0 µM.

And the “digestion of (GR)10 to shorter GR repeats (LC/MS)” value [1]?
Its value is “Immobilized trypsin at 6.25 TAME Units digests (GR)10 to almost exclusively (GR)1 in 10 to 30 minutes”.

How did the (GR)10 concentration left at 0 min (LC/MS; 50 µM start; TFA added before enzyme) [1] turn out when Kallikrein 6 (neurosin), autoactivated was run?
Its (GR)10 concentration left at 0 min (LC/MS; 50 µM start; TFA added before enzyme) is 27.8 µM and 54.7 µM.

What about the (GR)10 concentration left at 5 min (LC/MS; 50 µM start) [1] of the same substance?
The (GR)10 concentration left at 5 min (LC/MS; 50 µM start) was 42.2 µM and 57.5 µM.

And the (GR)10 concentration left at 10 min (LC/MS; 50 µM start) [1]?
The (GR)10 concentration left at 10 min (LC/MS; 50 µM start) was 50.1 µM and 60.8 µM.

What about the (GR)10 concentration left at 30 min (LC/MS; 50 µM start) [1] of the same substance?
The (GR)10 concentration left at 30 min (LC/MS; 50 µM start) was 57.8 µM and 65 µM.

What about the (GR)10 concentration left at 60 min (LC/MS; 50 µM start) [1] of the same substance?
Its (GR)10 concentration left at 60 min (LC/MS; 50 µM start) is 54.2 µM and 71.5 µM.

And the (GR)10 concentration left at 120 min (LC/MS; 50 µM start) [1]?
The (GR)10 concentration left at 120 min (LC/MS; 50 µM start) was 54.3 µM and 57.4 µM.

elastase was tested. Which “digestion … immobilized enzyme (LC/MS)” value [2] did it give?
The value was “over 90% digestion of biotin-(PEG)4-(GR)10 after only 5 minutes of incubation time”.

And the (GR)10 concentration left at 0 min (LC/MS; 50 µM start; TFA added before enzyme) [1]?
The (GR)10 concentration left at 0 min (LC/MS; 50 µM start; TFA added before enzyme) was 53.8 µM and 41.6 µM.

And the (GR)10 concentration left at 5 min (LC/MS; 50 µM start) [1]?
The (GR)10 concentration left at 5 min (LC/MS; 50 µM start) was 52.6 µM and 50.5 µM.

What about the (GR)10 concentration left at 10 min (LC/MS; 50 µM start) [1] of the same substance?
The (GR)10 concentration left at 10 min (LC/MS; 50 µM start) was 52.5 µM and 37.8 µM.

And the (GR)10 concentration left at 30 min (LC/MS; 50 µM start) [1]?
The (GR)10 concentration left at 30 min (LC/MS; 50 µM start) was 43.6 µM and 21.1 µM.

And the (GR)10 concentration left at 60 min (LC/MS; 50 µM start) [1]?
The (GR)10 concentration left at 60 min (LC/MS; 50 µM start) was 35.3 µM and 12.2 µM.

What about the (GR)10 left in CSF; Elastase-Immobilized-5 min reaction (LC/MS; 200 µM (GR)10 in human CSF) (normalized µM) [1] of the same substance?
The (GR)10 left in CSF; Elastase-Immobilized-5 min reaction (LC/MS; 200 µM (GR)10 in human CSF) (normalized µM) was -0.

And the (GR)10 left in CSF; Elastase-Immobilized-605 min reaction [as printed; 60 min meant] (LC/MS; 200 µM (GR)10 in human CSF) (normalized µM) [1]?
Its (GR)10 left in CSF; Elastase-Immobilized-605 min reaction [as printed; 60 min meant] (LC/MS; 200 µM (GR)10 in human CSF) (normalized µM) is -0.

What about the (GR)10 left; Elastase-Immobilized-5 min reaction (LC/MS) (µM (normalized to GR concentration)) [1] of the same substance?
Its (GR)10 left; Elastase-Immobilized-5 min reaction (LC/MS) (µM (normalized to GR concentration)) is -0.

And the (GR)10 left; Elastase-immobilized-60 min reaction (LC/MS) (µM (normalized to GR concentration)) [1]?
Its (GR)10 left; Elastase-immobilized-60 min reaction (LC/MS) (µM (normalized to GR concentration)) is -0.

What about the (GR)10 left; Elastase-in solution-5 min reaction (LC/MS) [1] of the same substance?
Its (GR)10 left; Elastase-in solution-5 min reaction (LC/MS) is 213 µM.

What about the (GR)10 left; Elastase-in solution-60 min reaction (LC/MS) (µM (normalized to GR concentration)) [1] of the same substance?
Its (GR)10 left; Elastase-in solution-60 min reaction (LC/MS) (µM (normalized to GR concentration)) is 21.6.

And the (GR)10 left; Elastase-resin wash from 5 min reaction (LC/MS) (µM (normalized to GR concentration)) [1]?
Its (GR)10 left; Elastase-resin wash from 5 min reaction (LC/MS) (µM (normalized to GR concentration)) is -0.

What about the (GR)10 left; Elastase-resin wash from 60 min reaction (LC/MS) (µM (normalized to GR concentration)) [1] of the same substance?
Its (GR)10 left; Elastase-resin wash from 60 min reaction (LC/MS) (µM (normalized to GR concentration)) is -0.

What about the “proteolytic activity on (GR)10 of immobilized enzyme after storage at 4° C. for over 2 months (LC/MS)” value [1] of the same substance?
Its value is “agarose resin having immobilized elastase did not exhibit substantial (GR)10 proteolytic activity at either 5 minute or 60 minute treatment times”.

Which (GR)10 concentration left at 0 min (LC/MS; 50 µM start; TFA added before enzyme) [1] does the source give for “thrombin (activated by thermolysin, quenched by EDTA)” here?
Its (GR)10 concentration left at 0 min (LC/MS; 50 µM start; TFA added before enzyme) is 37.7 µM and 52 µM.

What about the (GR)10 concentration left at 5 min (LC/MS; 50 µM start) [1] of the same substance?
The (GR)10 concentration left at 5 min (LC/MS; 50 µM start) was 42.9 µM and 54.8 µM.

What about the (GR)10 concentration left at 10 min (LC/MS; 50 µM start) [1] of the same substance?
Its (GR)10 concentration left at 10 min (LC/MS; 50 µM start) is 46.7 µM and 59.4 µM.

What about the (GR)10 concentration left at 30 min (LC/MS; 50 µM start) [1] of the same substance?
Its (GR)10 concentration left at 30 min (LC/MS; 50 µM start) is 49.1 µM and 48.6 µM.

And the (GR)10 concentration left at 60 min (LC/MS; 50 µM start) [1]?
The (GR)10 concentration left at 60 min (LC/MS; 50 µM start) was 56.2 µM and 55.2 µM.

And the (GR)10 concentration left at 120 min (LC/MS; 50 µM start) [1]?
The (GR)10 concentration left at 120 min (LC/MS; 50 µM start) was 45.3 µM and 48.7 µM.

With trypsin as the substance, how does the “digestion … immobilized enzyme (LC/MS)” value [2] read?
Its value is “over 90% digestion of biotin-(PEG)4-(GR)10 after only 5 minutes of incubation time”.

And the (GR)10 concentration left at 0 min (LC/MS; 50 µM start; TFA added before enzyme) [1]?
Its (GR)10 concentration left at 0 min (LC/MS; 50 µM start; TFA added before enzyme) is 52.8 µM and 48.9 µM.

And the (GR)10 concentration left at 5 min (LC/MS; 50 µM start) [1]?
Its (GR)10 concentration left at 5 min (LC/MS; 50 µM start) is 2.2 µM and 2 µM.

What about the “(GR)10 concentration left at 10 min (LC/MS; 50 µM start)” value [1] of the same substance?
Its value is “BLQ”.

And the “(GR)10 concentration left at 30 min (LC/MS; 50 µM start)” value [1]?
The value was “BLQ”.

And the “(GR)10 concentration left at 60 min (LC/MS; 50 µM start)” value [1]?
Its value is “BLQ”.

And the “(GR)10 concentration left at 120 min (LC/MS; 50 µM start)” value [1]?
The value was “BLQ”.

And the (GR)10 left in CSF; Trypsin-Immobilized-5 min reaction (LC/MS; 200 µM (GR)10 in human CSF) [1]?
The (GR)10 left in CSF; Trypsin-Immobilized-5 min reaction (LC/MS; 200 µM (GR)10 in human CSF) was 0 µM.

What about the (GR)10 left in CSF; Trypsin-Immobilized-60 min reaction (LC/MS; 200 µM (GR)10 in human CSF) (normalized µM) [1] of the same substance?
The (GR)10 left in CSF; Trypsin-Immobilized-60 min reaction (LC/MS; 200 µM (GR)10 in human CSF) (normalized µM) was -0.

And the (GR)10 left; Trypsin-Immobilized-5 min reaction (LC/MS) [1]?
The (GR)10 left; Trypsin-Immobilized-5 min reaction (LC/MS) was 0 µM.

And the (GR)10 left; Trypsin-immobilized-60 min reaction (LC/MS) [1]?
Its (GR)10 left; Trypsin-immobilized-60 min reaction (LC/MS) is 0 µM.

And the (GR)10 left; Trypsin-in solution-5 min reaction (LC/MS) [1]?
The (GR)10 left; Trypsin-in solution-5 min reaction (LC/MS) was 0 µM.

What about the (GR)10 left; Trypsin-in solution-60 min reaction (LC/MS) [1] of the same substance?
Its (GR)10 left; Trypsin-in solution-60 min reaction (LC/MS) is 0 µM.

What about the (GR)10 left; Trypsin-resin wash from 5 min reaction (LC/MS) [1] of the same substance?
The (GR)10 left; Trypsin-resin wash from 5 min reaction (LC/MS) was 6.6 µM.

And the (GR)10 left; Trypsin-resin wash from 60 min reaction (LC/MS) [1]?
Its (GR)10 left; Trypsin-resin wash from 60 min reaction (LC/MS) is 0 µM.

What about the “conversion of (GR)10 to shorter GR repeats (LC/MS)” value [1] of the same substance?
Its value is “Almost complete conversion to (GR)1 and (GR)2 was observed in 5 to 10 min using either 2.5 or 10 µg/mL of trypsin for concentrations 50 µM of (GR)10”.

And the “proteolytic activity on (GR)10 of immobilized enzyme after storage at 4° C. for over 2 months (LC/MS)” value [1]?
Its value is “agarose resin having immobilized trypsin exhibited proteolytic activity after storage at 4 °C for over 2 months”.
